10 sequences from the supplement of paper PMC11316812 can be followed below.

± gives the standard deviation of the averaged measurements.

For one data set, the system named is MCF7. Nature of the data set: percentage of EdU-negative (G0-arrested) nuclei per well, 72 h; higher = more G0 arrest. The settings on record: reference: sequence is the full UniProt precursor, the tested protein was the secreted form or ectodomain.
The subject of a further data set is hTERT-HMEC. The description is as above. Particulars: reference: sequence is the full UniProt precursor, the tested protein was the secreted form or ectodomain.
Setting [1] is: protein concentration 0.02175 µM.
[2] abbreviates: protein concentration 0.2175 µM.
Where [3] appears, read: protein concentration 0.0191325 µM.
The mark [4] stands for this setting: protein concentration 0.191325 µM.
[5] abbreviates: protein concentration 0.0175 µM.
Where [6] appears, read: protein concentration 0.01475 µM.
Setting [7] is: protein concentration 0.1475 µM.
Setting [8] is: protein concentration 0.0225 µM.
Setting [9] is: protein concentration 0.0168571 µM.
The mark [10] stands for this setting: protein concentration 0.168571 µM.
Setting [11] is: protein concentration 0.021935 µM.
The mark [12] stands for this setting: protein concentration 0.21935 µM.
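Further: secreted proteins added to cultured cells, EdU pulse at the end, nuclei found by Hoechst imaging, EdU status from nuclear versus surrounding ring intensity ratio, PBS as neutral control.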

Consider “MLLPKKMKLLLFLVSQMAILALFFHMYSHNISSLSMKAQPERMHVLVLSSWRSGSSFVGQLFGQHPDVFYLMEPAWHVWMTFKQSTAWMLHMAVRDLIRAVFLCDMSVFDAYMEPGPRRQSSLFQWENSRALCSAPACDIIPQDEIIPRAHCRLLCSQQPFEVVEKACRSYSHVVLKEVRFFNLQSLYPLLKDPSLNLHIVHLVRDPRAVFRSRERTKGDLMIDSRIVMGQHEQKLKKEDQPYYVMQVICQSQLEIYKTIQSLPKALQERYLLVRYEDLARAPVAQTSRMYEFVGLEFLPHLQTWVHNITRGKGMGDHAFHTNARDALNVSQAWRWSLPYEKVSRLQKACGDAMNLLGYRHVRSEQEQRNLLLDLLSTWTVPEQIH [Q8NCG5]”, for which the “percentage of EdU-negative” value turned out to be 26 ± 0.23% in the data set on MCF7 (protein concentration 0.006 µM), 29.1 ± 1.1% with MCF7 (protein concentration 0.06 µM), 5.16 ± 0.29% with hTERT-HMEC (protein concentration 0.006 µM) and 4.77 ± 0.11% in the data set with hTERT-HMEC (protein concentration 0.06 µM).

As for “MLLPLLLLLPMCWAVEVKRPRGVSLTNHHFYDESKPFTCLDGSATIPFDQVNDDYCDCKDGSDEPGTAACPNGSFHCTNTGYKPLYIPSNRVNDGVCDCCDGTDEYNSGVICENTCKEKGRKERESLQQMAEVTREGFRLKKILIEDWKKAREEKQKKLIELQAGKKSLEDQVEMLRTVKEEAEKPEREAKEQHQKLWEEQLAAAKAQQEQELAADAFKELDDDMDGTVSVTELQTHPELDTDGDGALSEAEAQALLSGDTQTDATSFYDRVWAAIRDKYRSEALPTDLPAPSAPDLTEPKEEQPPVPSSPTEEEEEEEEEEEEEAEEEEEEEDSEEAPPPLSPPQPASPAEEDKMPPYDEQTQAFIDAAQEARNKFEEAERSLKDMEESIRNLEQEISFDFGPNGEFAYLYSQCYELTTNEYVYRLCPFKLVSQKPKLGGSPTSLGTWGSWIGPDHDKFSAMKYEQGTGCWQGPNRSTTVRLLCGKETMVTSTTEPSRCEYLMELMTPAACPEPPPEAPTEDDHDEL”, the “percentage of EdU-negative” value in the data set with MCF7 (setting [1]) came out at 27.5 ± 0.87%; in the data set with MCF7 (setting [2]), 24.9 ± 0.62%; with hTERT-HMEC (setting [1]) it was 5.19 ± 1.2%; with hTERT-HMEC (setting [2]), 5.7 ± 0.68%.

With “MLLPWATSAPGLAWGPLVLGLFGLLAASQPQAVPPYASENQTCRDQEKEYYEPQHRICCSRCPPGTYVSAKCSRIRDTVCATCAENSYNEHWNYLTICQLCRPCDPVMGLEEIAPCTSKRKTQCRCQPGMFCAAWALECTHCELLSDCPPGTEAELKDEVGKGNNHCVPCKAGHFQNTSSPSARCQPHTRCENQGLVEAAPGTAQSDTTCKNPLEPLPPEMSGTMLMLAVLLPLAFFLLLATVFSCIWKSHPSLCRKLGSLLKRRPQGEGPNPVAGSWEPPKAHPYFPDLVQPLLPISGDVSPVSTGLPAAPVLEAGVPQQQSPLDLTREPQLEPGEQSQVAHGTNGIHVTGGSMTITGNIYIYNGPVLGGPPGPGDLPATPEPPYPIPEEGDPGPPGLSTPHQEDGKAWHLAETEHCGATPSNRGPRNQFITHD”, the “percentage of EdU-negative” value with MCF7 (setting [3]) was determined as 26.7 ± 0.76%; in the data set on MCF7 (setting [4]), 27.3 ± 0.76%; in the data set with hTERT-HMEC (setting [3]), 5.06 ± 0.25%; in the data set with hTERT-HMEC (setting [4]) it was 5.55 ± 1.9%.

As for “MLLRGVLLALQALQLAGALDLPAGSCAFEESTCGFDSVLASLPWILNEEGHYIYVDTSFGKQGEKAVLLSPDLQAEEWSCLRLVYQITTSSESLSDPSQLNLYMRFEDESFDRLLWSAKEPSDSWLIASLDLQNSSKKFKILIEGVLGQGNTASIALFEIKMTTGYCIECDFEENHLCGFVNRWNPNVNWFVGGGSIRNVHSILPQDHTFKSELGHYMYVDSVYVKHFQEVAQLISPLTTAPMAGCLSFYYQIQQGNDNVFSLYTRDVAGLYEEIWKADRPGNAAWNLAEVEFSAPYPMEVIFEVAFNGPKGGYVALDDISFSPVHCQNQTELLFSAVEASCNFEQDLCNFYQDKEGPGWTRVKVKPNMYRAGDHTTGLGYYLLANTKFTSQPGYIGRLYGPSLPGNLQYCLRFHYAIYGFLKMSDTLAVYIFEENHVVQEKIWSVLESPRGVWMQAEITFKKPMPTKVVFMSLCKSFWDCGLVALDDITIQLGSCSSSEKLPPPPGECTFEQDECTFTQEKRNRSSWHRRRGETPTSYTGPKGDHTTGVGYYMYIEASHMVYGQKARLLSRPLRGVSGKHCLTFFYHMYGGGTGLLSVYLKKEEDSEESLLWRRRGEQSISWLRALIEYSCERQHQIIFEAIRGVSIRSDIAIDDVKFQAGPCGEMEDTTQQSSGYSEDLNEIEY [Q7Z304]”, the “percentage of EdU-negative” value with MCF7 (setting [5]) came to 28.1 ± 1.3%; with MCF7 (protein concentration 0.175 µM), 31.9 ± 1.8%; in the data set with hTERT-HMEC (setting [5]), 5.68 ± 0.56%; in the data set on hTERT-HMEC (protein concentration 0.175 µM) it was 8.11 ± 0.92%.

For the sequence “MLLRLLLAWAAAGPTLGQDPWAAEPRAACGPSSCYALFPRRRTFLEAWRACRELGGDLATPRTPEEAQRVDSLVGAGPASRLLWIGLQRQARQCQLQRPLRGFTWTTGDQDTAFTNWAQPASGGPCPAQRCVALEASGEHRWLEGSCTLAVDGYLCQFGFEGACPALQDEAGQAGPAVYTTPFHLVSTEFEWLPFGSVAAVQCQAGRGASLLCVKQPEGGVGWSRAGPLCLGTGCSPDNGGCEHECVEEVDGHVSCRCTEGFRLAADGRSCEDPCAQAPCEQQCEPGGPQGYSCHCRLGFRPAEDDPHRCVDTDECQIAGVCQQMCVNYVGGFECYCSEGHELEADGISCSPAGAMGAQASQDLGDELLDDGEDEEDEDEAWKAFNGGWTEMPGILWMEPTQPPDFALAYRPSFPEDREPQIPYPEPTWPPPLSAPRVPYHSSVLSVTRPVVVSATHPTLPSAHQPPVIPATHPALSRDHQIPVIAANYPDLPSAYQPGILSVSHSAQPPAHQPPMISTKYPELFPAHQSPMFPDTRVAGTQTTTHLPGIPPNHAPLVTTLGAQLPPQAPDALVLRTQATQLPIIPTAQPSLTTTSRSPVSPAHQISVPAATQPAALPTLLPSQSPTNQTSPISPTHPHSKAPQIPREDGPSPKLALWLPSPAPTAAPTALGEAGLAEHSQRDDRWLLVALLVPTCVFLVVLLALGIVYCTRCGPHAPNKRITDCYRWVIHAGSKSPTEPMPPRGSLTGVQTCRTSV [Q9HCU0]”, the “percentage of EdU-negative” value in the data set on MCF7 (setting [6]) was 25.7 ± 2.5%; in the data set on MCF7 (setting [7]) it was 27.5 ± 1.9%; with hTERT-HMEC (setting [6]) it was 4.69 ± 0.05%; in the data set on hTERT-HMEC (setting [7]), 6.87 ± 0.4%.

“MLLSVPLLLGLLGLAVAEPAVYFKEQFLDGDGWTSRWIESKHKSDFGKFVLSSGKFYGDEEKDKGLQTSQDARFYALSASFEPFSNKGQTLVVQFTVKHEQNIDCGGGYVKLFPNSLDQTDMHGDSEYNIMFGPDICGPGTKKVHVIFNYKGKNVLINKDIRCKDDEFTHLYTLIVRPDNTYEVKIDNSQVESGSLEDDWDFLPPKKIKDPDASKPEDWDERAKIDDPTDSKPEDWDKPEHIPDPDAKKPEDWDEEMDGEWEPPVIQNPEYKGEWKPRQIDNPDYKGTWIHPEIDNPEYSPDPSIYAYDNFGVLGLDLWQVKSGTIFDNFLITNDEAYAEEFGNETWGVTKAAEKQMKDKQDEEQRLKEEEEDKKRKEEEEAEDKEDDEDKDEDEEDEEDKEEDEEEDVPGQAKDEL”: the “percentage of EdU-negative” value with MCF7 (setting [8]) stood at 21.8 ± 0.44%; in the data set with MCF7 (protein concentration 0.225 µM) it was 28.2 ± 2.5%; in the data set on hTERT-HMEC (setting [8]), 5.2 ± 0.44%; with hTERT-HMEC (protein concentration 0.225 µM), 15.5 ± 2.6%.

In the case of “MLLVLVVLIPVLVSSGGPEGHYEMLGTCRMVCDPYPARGPGAGARTDGGDALSEQSGAPPPSTLVQGPQGKPGRTGKPGPPGPPGDPGPPGPVGPPGEKGEPGKPGPPGLPGAGGSGAISTATYTTVPRVAFYAGLKNPHEGYEVLKFDDVVTNLGNNYDAASGKFTCNIPGTYFFTYHVLMRGGDGTSMWADLCKNGQVRASAIAQDADQNYDYASNSVILHLDAGDEVFIKLDGGKAHGGNSNKYSTFSGFIIYSD”, the “percentage of EdU-negative” value in the data set with MCF7 (setting [9]) came to 27 ± 0.61%; in the data set with MCF7 (setting [10]), 28.3 ± 0.59%; with hTERT-HMEC (setting [9]), 4.78 ± 0.083%; in the data set with hTERT-HMEC (setting [10]), 8.79 ± 0.3%.

Regarding “MLLWVILLVLAPVSGQFARTPRPIIFLQPPWTTVFQGERVTLTCKGFRFYSPQKTKWYHRYLGKEILRETPDNILEVQESGEYRCQAQGSPLSSPVHLDFSSASLILQAPLSVFEGDSVVLRCRAKAEVTLNNTIYKNDNVLAFLNKRTDFHIPHACLKDNGAYRCTGYKESCCPVSSNTVKIQVQEPFTRPVLRASSFQPISGNPVTLTCETQLSLERSDVPLRFRFFRDDQTLGLGWSLSPNFQITAMWSKDSGFYWCKAATMPYSVISDSPRSWIQVQIPASHPVLTLSPEKALNFEGTKVTLHCETQEDSLRTLYRFYHEGVPLRHKSVRCERGASISFSLTTENSGNYYCTADNGLGAKPSKAVSLSVTVPVSHPVLNLSSPEDLIFEGAKVTLHCEAQRGSLPILYQFHHEGAALERRSANSAGGVAISFSLTAEHSGNYYCTADNGFGPQRSKAVSLSVTVPVSHPVLTLSSAEALTFEGATVTLHCEVQRGSPQILYQFYHEDMPLWSSSTPSVGRVSFSFSLTEGHSGNYYCTADNGFGPQRSEVVSLFVTVPVSRPILTLRVPRAQAVVGDLLELHCEAPRGSPPILYWFYHEDVTLGSSSAPSGGEASFNLSLTAEHSGNYSCEANNGLVAQHSDTISLSVIVPVSRPILTFRAPRAQAVVGDLLELHCEALRGSSPILYWFYHEDVTLGKISAPSGGGASFNLSLTTEHSGIYSCEADNGLEAQRSEMVTLKVAVPVSRPVLTLRAPGTHAAVGDLLELHCEALRGSPLILYRFFHEDVTLGNRSSPSGGASLNLSLTAEHSGNYSCEADNGLGAQRSETVTLYITGLTANRSGPFATGVAGGLLSIAGLAAGALLLYCWLSRKAGRKPASDPARSPSDSDSQEPTYHNVPAWEELQPVYTNANPRGENVVYSEVRIIQEKKKHAVASDPRHLRNKGSPIIYSEVKVASTPVSGSLFLASSAPHR [Q96RD9]”, the “percentage of EdU-negative” value amounted to 26 ± 0.75% with MCF7 (setting [8]), 31.1 ± 3.2% in the data set with MCF7 (protein concentration 0.225 µM), 4.23 ± 0.27% in the data set on hTERT-HMEC (setting [8]) and 5.41 ± 0.94% with hTERT-HMEC (protein concentration 0.225 µM).

As to “MLPAAMKGLGLALLAVLLCSAPAHGLWCQDCTLTTNSSHCTPKQCQPSDTVCASVRITDPSSSRKDHSVNKMCASSCDFVKRHFFSDYLMGFINSGILKVDVDCCEKDLCNGAAGAGHSPWALAGGLLLSLGPALLWAGP”, the “percentage of EdU-negative” value in the data set with MCF7 (setting [8]) was 25.6 ± 3.3%; with MCF7 (protein concentration 0.225 µM), 26.7 ± 1.4%; with hTERT-HMEC (setting [8]) it was 4.57 ± 0.15%; with hTERT-HMEC (protein concentration 0.225 µM) it was 5.48 ± 0.5%.

For “MLPAATASLLGPLLTACALLPFAQGQTPNYTRPVFLCGGDVKGESGYVASEGFPNLYPPNKECIWTITVPEGQTVSLSFRVFDLELHPACRYDALEVFAGSGTSGQRLGRFCGTFRPAPLVAPGNQVTLRMTTDEGTGGRGFLLWYSGRATSGTEHQFCGGRLEKAQGTLTTPNWPESDYPPGISCSWHIIAPPDQVIALTFEKFDLEPDTYCRYDSVSVFNGAVSDDSRRLGKFCGDAVPGSISSEGNELLVQFVSDLSVTADGFSASYKTLPRGTAKEGQGPGPKRGTEPKVKLPPKSQPPEKTEESPSAPDAPTCPKQCRRTGTLQSNFCASSLVVTATVKSMVREPGEGLAVTVSLIGAYKTGGLDLPSPPTGASLKFYVPCKQCPPMKKGVSYLLMGQVEENRGPVLPPESFVVLHRPNQDQILTNLSKRKCPSQPVRAAASQD”, the “percentage of EdU-negative” value turned out to be 22.7 ± 2.1% in the data set on MCF7 (setting [11]), 26.5 ± 0.72% in the data set on MCF7 (setting [12]), 4.8 ± 0.62% in the data set with hTERT-HMEC (setting [11]) and 6.48 ± 0.73% in the data set on hTERT-HMEC (setting [12]).
